According to article PMC9586977, “Structure of the pre-mRNA leakage 39-kDa protein reveals a single domain of integrated zf-C3HC and Rsm1 modules” (Scientific Reports, 2022):

B1: ScPml39_(77–317), truncated Saccharomyces cerevisiae pre-mRNA leakage 39-kDa protein (residues 77–317) (domain or fragment, UniProt Q03760 77-317, looked up)
chain: GFRLHDLRALLKRICSIQNYTRHVLIEWDVRWVNPLTLASKGWEPYQSASQSQVPFKCCCCHAIMTIPLLKNGDDVADYTMKLNEKIWNSNIIGNHLQKCPWRENQVDLNKEYYLSSQNLIREIERIHTEIDRIVSGSNEFSLKRNSSRIFHYLSEKEIQKLAFFFDCKDYSLVGLLLLGYTKFQKDDLVQCTACFHRASLKKLEYTEFNGHALWCRYYNKELLPTMLLELIGKEDKLITK
notes: Pml39 (pre-mRNA leakage 39-kDa protein), Saccharomyces cerevisiae, UniProtKB Q03760, residues 77-317 of 334; holds the zf-C3HC (79-189) and Rsm1 (190-311) modules; Cloned into NcoI/NotI of pET28a; hexahistidine tag removed with PreScission protease; also called truncated ScPml39; source: E. coli BL21(DE3)-RIL CodonPlus, purified (Ni-NTA, HiTrap SP, Superdex 200)
B2: ScMlp1_(1–325), N-terminal fragment of Saccharomyces cerevisiae Myosin-like protein 1 (residues 1–325), homodimer (domain or fragment, UniProt Q02455 1-325, looked up)
chain: MSDHDTPMESIQNGENSDERLNAIASFFGCSLEQVKSFDGDVVKHLNDKLLQFNELKSENLKVTVSFDELKASSLKKIDGLKTEMENVIRENDKIRKERNDTFVKFESVENEKMKLSSELEFVKRKLDDLTEEKKETQSNQQRTLKILDERLKEIELVRVENNRSNSECKKLRSTIMDLETKQQGYITNDLNSRTELERKTQELTLLQSNNDWLEKELRSKNEQYLSYRQKTDKVILDIRNELNRLRNDFQMERTNNDVLKQKNNELSKSLQEKLLEIKGLSDSLNSEKQEFSAEMSLKQRLVDLLESQLNAVKEELNSIRELNT
notes: Cloned into NcoI/NotI of pET28a; hexahistidine tag removed with PreScission protease; Homodimer by SEC-MALS (~80 kDa; expected monomer 41 kDa); also called ΔC-ScMlp1; source: E. coli BL21(DE3)-RIL CodonPlus, purified (Ni-NTA, HiTrap Q, Superdex 200)

Tests used:
[1] = biological target: B2; assay: ITC; 1.6 mM ScPml39(77-317) injected (2 µl every 180 s) into 350 µl of 70 µM ScMlp1(1-325) in the chamber; 4 °C; 500 mM NaCl, 20 mM HEPES pH 7.5, 0.5 mM TCEP; three independent measurements; conditions: both partners purified
[2] = biological target: the molecule itself; assay: SEC-MALS; 100 µl of 70 µM ScMlp1(1-325) on Superdex 200 10/300 GL, 0.5 mL/min, 25 °C; 500 mM NaCl, 20 mM HEPES-NaOH pH 7.5, 0.5 mM TCEP

Row | Binder | Kd [1] | stoichiometry N [1] | stoichiometry N [2]
1 | B1 | ~13 µM | 1 | 
2 | B2 |  |  | 2
